Experimental data published in patent US20100178296A1.

B1: DX178, rat anti-human inhibitory CD200R monoclonal antibody (antibody, V domains shown)
VH: EIQLQESGPGLVKPSQSLSLTCSVTGFTITSGYDWSWIRKFPGNKMEWMGYIGFSGSTVYNPSLNSRISITRDTAKNQFFLQLNSVTTEDTATYHCAKSFVQNTFIYDWFFDFWGPGTMVTVSS
VL: DVRMTQSPSNLAASPGESVSINCKASKNISKYLAWYQQKPGKANRLLICSGSTLQSGTPSRFSGSGFGTDFTLTIRNLEPEDFGLYYCQQHNEFPLTFGSGTKLEIKR
B2: DX185, rat anti-human inhibitory CD200R monoclonal antibody (antibody, V domains shown)
VH: EIQLQESGPGLVKPSQSFSLTCSVTGYTITSGYDWSWIRKFPGNRMEWMGYINYSGSTVYNPSLRSRFSITRDTSKNQFFLQLNSVASEDTATYYCAKFEASNTYLYDWYFDFWGPGTMVTVSS
VL: DVQMTQSPSYLAASPGESVSISCKAGKNINTNLAWYQAKPGKTNKVLIHSGSTLQSGTPSRFSGSGFGTDFTLTIRSLEPEDFAVYYCQQHNEFPLTFGSGTKLEIKR
B3: DX182, rat anti-human inhibitory CD200R monoclonal antibody (antibody, V domains shown)
VL: EVQMTQSPSTLTASPGESVSINCKASKNIRSYLAWYQQKPGKPNKLLIYSGSTLHSGTPSRFSGSGFGTDFTLTIRNLEPEDFGLYYCQQHHEYPLTFGSGTKLEIKR
VH: EIQLQESGPGLVKPSQSLSLTCSVTGYTITSGYDWSWIRKFPGNKMEWMGYINYGGSTNYKPSLGSRISITRDTSKNQFFLQLNSVSPEDTATYYCAKYNEYKSYIYDWYFDFWGPGTMVTVSS
B4: DX184, rat anti-human inhibitory CD200R monoclonal antibody (antibody, V domains shown)
VL: DIVMTQSPTFMSISVGDRVTMSCKASQNVGSNVDWYQQKTGQSPKLLIYKASNRYTGVPDRFTGSGSGTGFTFTITNLQAEDLAVYYCMQSLSFPYTSGAGT
VH: QVQLKESGPGLVQPSQTLSLTCTVSGFSLTNNGVSWVRQPPGKGLEWIAAISSGGGTFYNSALKSRLSISRDTSKSQVFLKMNSLQTEDTAIYFCARDGDWDWYFDFWGPGTMVTVSS

Key:
[1] = target: fusion protein of the extracellular domain of the human inhibitory receptor CD200R fused to the Fc portion of human IgG1 (human) (UniProt Q8TD46); assay: KinExA, human CD200R-Ig in solution and on the particles
Sequence of fusion protein of the extracellular domain of the human inhibitory receptor CD200R fused to the Fc portion of human IgG1 (human) (Q8TD46 other isoform, or with tags, fused parts or gaps limits assumed, form in doubt): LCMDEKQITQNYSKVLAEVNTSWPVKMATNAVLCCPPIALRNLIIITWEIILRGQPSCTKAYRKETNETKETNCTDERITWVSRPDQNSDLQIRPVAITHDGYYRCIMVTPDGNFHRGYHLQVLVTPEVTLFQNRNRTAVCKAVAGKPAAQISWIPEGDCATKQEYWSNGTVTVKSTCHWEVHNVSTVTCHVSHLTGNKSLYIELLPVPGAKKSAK

[2] = target: fusion protein of the extracellular domain of the human inhibitory receptor CD200R fused to the Fc portion of human IgG1 (human) (UniProt Q8TD46); assay: SPR (BIAcore 3000), fusion protein captured by anti-human Fc, antibody at 133 and 13.3 nM, bivalent analyte model
[3] = target: fusion protein of the extracellular domain of the human inhibitory receptor CD200R fused to the Fc portion of human IgG1 (human) (UniProt Q8TD46); assay: SPR (BIAcore 3000), fusion protein captured by anti-human Fc, antibody 0.82 to 600 nM, bivalent analyte model
[4] = target: human CD200R, full length, expressed on murine mast cells (DT762) (human) (UniProt Q8TD46)
Sequence of human CD200R, full length, expressed on murine mast cells (DT762) (human) (Q8TD46 other isoform, or with tags, fused parts or gaps limits assumed, form in doubt): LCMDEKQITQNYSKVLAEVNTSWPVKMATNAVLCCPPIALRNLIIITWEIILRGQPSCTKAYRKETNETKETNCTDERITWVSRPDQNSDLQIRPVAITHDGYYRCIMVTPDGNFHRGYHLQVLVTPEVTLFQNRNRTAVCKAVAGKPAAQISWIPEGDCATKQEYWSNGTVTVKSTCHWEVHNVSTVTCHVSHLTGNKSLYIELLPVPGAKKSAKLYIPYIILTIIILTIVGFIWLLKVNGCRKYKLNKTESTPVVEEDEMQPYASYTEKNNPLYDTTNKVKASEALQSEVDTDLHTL

Binder | Kd [1] [nM] | Kd [2] [nM] | Kd [3] [nM] | IC50 (read off the curve) [4] [µg/mL]
B1 | 0.628 | 1.62 |  | 
B2 | 0.126 | 0.202 |  | 
B3 | 0.056 | 0.024 | 0.76 | 0.2
B4 | 0.026 | 1.93 |  | 
